Experimental data taken from patent US20210122812A1 (Chugai, published 2021).

What was measured:
GC-hIgA-FLAG = biological target: T1, GC-hIgA-FLAG (human); test: SPR (Biacore T200), antibody captured on Protein A/G on a CM5 chip, monomeric IgA injected as analyte, 37 C, running buffer pH 7.4 with 1.2 mM Ca; response normalized to capture ligand = 100 RU; analyte concentration not given [i]
T1 construct: Recombinant human IgA with a FLAG tag, not treated with SPDP; also called unaggregated hIgA; unaggregated human IgA
T1 sequence (VH, as listed by the source, chain 1 of 2): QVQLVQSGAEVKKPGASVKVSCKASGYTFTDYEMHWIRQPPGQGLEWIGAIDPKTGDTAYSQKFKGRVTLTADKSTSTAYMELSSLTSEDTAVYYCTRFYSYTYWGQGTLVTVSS
T1 sequence (VL, as listed by the source, chain 2 of 2): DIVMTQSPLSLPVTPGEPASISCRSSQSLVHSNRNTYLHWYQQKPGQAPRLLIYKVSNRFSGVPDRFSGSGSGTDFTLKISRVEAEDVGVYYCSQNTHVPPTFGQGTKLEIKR
Method: The obtained antibodies were assessed for their binding to unaggregated hIgA and aggregated hIgA using Biacore™ T200 surface plasma resonance assay (GE Healthcare). The measurement was carried out using as a running buffer, 0.05% Tween 20®, 20 mmol/ACES, 150 mmol/l NaCl (pH 7.4 and pH 5.8) containing 3 μM or 1.2 mM CaCl₂.
After an adequate amount of recombinant Protein A/G (Thermo Scientific) was immobilized onto Sensor chip CM5 (GE Healthcare) by an amino coupling method, antibodies were allowed to bind onto the sensor chip. An appropriate concentration of hIgA (described in Example 1) was injected as an analyte to interact with antibodies on the sensor chip. Then, the sensor chip was regenerated by injecting 10 mmol/L Glycine-HCl, pH 1.5. The measurement was carried out at 37° C.

MRA-hIgA [1] = biological target: T2, MRA-hIgA (human); test: SPR (Biacore T200), antibody captured on Protein A/G, MRA-hIgA as analyte, 37 C, pH 5.8, 3 uM Ca, steady state affinity
T2 construct: also called human IgA; recombinant of human IgA
T2 sequence (VH, as listed by the source): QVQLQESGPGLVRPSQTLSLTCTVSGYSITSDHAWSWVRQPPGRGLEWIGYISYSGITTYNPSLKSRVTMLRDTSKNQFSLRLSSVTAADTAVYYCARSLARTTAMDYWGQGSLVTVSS
Method: (§1) Using Biacore™ T200 surface plasma resonance assay (GE Healthcare), the obtained antibodies were assessed for their binding activity to human IgA (dissociation constant KD (M)). The measurement was carried out using as a running buffer 0.05% Tween 20® (polyoxyethylene (20) sorbitan monolaurate), 20 mmol/l ACES, 150 mmol/l NaCl (pH 7.4 or pH 5.8) containing 3 μM or 1.2 mM CaCl₂, or 0.05% Tween 20®, 20 mmol/l ACES, 150 mmol/l NaCl (pH 8.0) containing 0.1 μM or 10 mM CaCl₂.
(§2) After an adequate amount of recombinant Protein A/G (Thermo Scientific) was immobilized onto the Sensor chip CM5 (GE Healthcare) by an amino coupling method, antibodies were allowed to bind onto the sensor chip. An appropriate concentration of MRA-hIgA (described in (1-1)) was injected as an analyte to interact with antibodies on the sensor chip. Then, the sensor chip was regenerated by injecting 10 mmol/l glycine-HCl, pH 1.5. The measurement was carried out at 37° C. From the assay result, the dissociation constant KD (M) was calculated based on curve-fitting analysis and equilibrium constant analysis using Biacore™ T200 Evaluation Software (GE Healthcare).

MRA-hIgA [2] = biological target: T2, MRA-hIgA; test: SPR (Biacore T200), antibody captured on Protein A/G, MRA-hIgA as analyte, 37 C, pH 5.8, 1.2 mM Ca, steady state affinity
Method: as §1, §2

MRA-hIgA [3] = biological target: T2, MRA-hIgA; test: SPR (Biacore T200), antibody captured on Protein A/G, MRA-hIgA as analyte, 37 C, pH 7.4, 1.2 mM Ca, 1:1 binding model
Method: as §1, §2

MRA-hIgA [4] = biological target: T2, MRA-hIgA; test: SPR (Biacore T200), antibody captured on Protein A/G, MRA-hIgA as analyte, 37 C, pH 7.4, 3 uM Ca, steady state affinity
Method: as §1, §2

binding result (GC-hIgA-FLAG): binds | Kd (MRA-hIgA [1]): 5 µM | Kd (MRA-hIgA [2]): 4 µM | Kd (MRA-hIgA [3]): 0.039 µM | Kd (MRA-hIgA [4]): 6.7 µM
B1: GA2-IgG1 (antibody, V domains shown)
VH: QVQLVQSGAEVKKPGSSVKVSCKASGGTFSSYAISWVRQAPGQGLEWMGGIIPIFGTANYAQKFQGRVTITADESTSTAYMELSSLRSEDTAVYYCARPRWETAISSDAFDIWGQGTMVTVSS
VL: DIQMTQSPSSLSASVGDRVTITCRASQSISDDLNWYQQKPGKAPKLLIYEASNLQSGVPSRFSGSGSGTDFTLTISSLQPEDFATYYCQQHSSSPLTFGQGTKVEIKR
notes: also called anti-hIgA antibody; anti-human IgA antibody
